Laboratory results from article doi:10.1101/2021.01.25.428026.

Experiments:
[1] = biological target: recombinant DJ-1 C46A mutant (human) (UniProt Q99497); assay: non-reducing SDS-PAGE
[2] = biological target: recombinant DJ-1 C53A mutant (human) (UniProt Q99497); assay: non-reducing SDS-PAGE

| Substance | stoichiometry N [1] | stoichiometry N [2] |
| --- | --- | --- |
| recombinant DJ-1 C46A mutant (from UniProt Q99497 1-189) (natural protein) | 3 | – |
| recombinant DJ-1 C53A mutant (from UniProt Q99497 1-189) (natural protein) | – | 3 |
